Measured values as given in article PMC7893820.

Target: mGFP-tagged N-RasG12V (UniProt P01111)
Assay: FRET or BRET; FLIM-FRET in fixed HEK293 EBNA cells co-transfected with donor mGFP-NRasG12V and acceptor mCherry-PDE6δ plasmids (1:3); apparent FRET efficiency from the donor's lifetime; cells with scrambled siRNA in 0.1% DMSO (control), ICMT siRNA, or 2.5 μM deltarasin for 24 h

Sequence of mCherry-tagged PDE6δ (O43924 whole entry, stated change not applied): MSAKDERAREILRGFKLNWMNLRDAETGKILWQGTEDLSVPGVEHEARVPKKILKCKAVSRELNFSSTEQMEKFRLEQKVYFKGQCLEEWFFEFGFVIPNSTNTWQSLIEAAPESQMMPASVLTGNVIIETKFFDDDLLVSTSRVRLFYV
Sequence of mGFP-tagged N-RasG12V (P01111 whole entry G12V): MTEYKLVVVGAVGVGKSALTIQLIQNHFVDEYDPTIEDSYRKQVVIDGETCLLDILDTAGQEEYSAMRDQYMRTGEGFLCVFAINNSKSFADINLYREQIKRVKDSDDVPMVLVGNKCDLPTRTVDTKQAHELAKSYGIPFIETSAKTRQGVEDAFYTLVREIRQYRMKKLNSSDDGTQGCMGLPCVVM

mCherry-tagged PDE6δ (from UniProt O43924 1-150) (natural protein)
reduction of FRET efficiency with 2.5 μM deltarasin: 50%
